{"source": "patent US20240238448", "target": "ZFHD1-FKBP (ZF-FKBP fusion) (synthetic construct) (UniProt P08046+P14859)", "sequence (P08046 333-390, chain 1 of 2)": "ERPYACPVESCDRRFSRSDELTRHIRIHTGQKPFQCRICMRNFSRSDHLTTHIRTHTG", "sequence (P14859 378-439, chain 2 of 2)": "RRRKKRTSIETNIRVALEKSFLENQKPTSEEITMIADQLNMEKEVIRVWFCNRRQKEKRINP", "assay": "cell_activity", "conditions": "GFP reporter in 293-ZF-FKBP cells with CEM87 recruiting BRD4; dose-dependent; indirect evidence of binding; no response in WT 293 cells"}
{"substance": "ZF binding domain recognition sequence (ZFHD1 cognate site) upstream of JET promoter in AAV2-BD-JET-GFP", "values": [{"measurement": "activity (fold activation)", "result": "> 10"}]}
